For one test, the target named is T1, soluble CD4 (UniProt P01730 26-396, limits assumed).
T1 construct: also called sCD4
The test can be described thus: ELISA, plate coated with 1 µg/ml antigen, m36 detected with HRP anti-FLAG.

The target in the next test is T2, bovine serum albumin (bovine, UniProt P02769 25-607).
T2 construct: also called BSA
The test is described as above.

Test [1] deals with T3, single-chain fusion protein gp120Bal-CD4 (HIV-1 isolate Bal, UniProt P01730 26-208).
T3 construct: Gift from T. Fouts; Coated on ELISA plates; also called gp120-CD4; Bal gp120-CD4; not shown: junction or linker between gp120 and CD4 not described (gift, Fouts et al. 2000)
The test can be described thus: ELISA, serially diluted m36 on coated antigen, anti-FLAG detection.

In test [2] the target is T3, single-chain fusion protein gp120Bal-CD4. Briefly: ELISA, soluble VH on coated gp120-CD4. Background: An ELISA detects its analyte on a solid surface through an enzyme-linked reagent.

T2 sequence (P02769 25-607 limits assumed): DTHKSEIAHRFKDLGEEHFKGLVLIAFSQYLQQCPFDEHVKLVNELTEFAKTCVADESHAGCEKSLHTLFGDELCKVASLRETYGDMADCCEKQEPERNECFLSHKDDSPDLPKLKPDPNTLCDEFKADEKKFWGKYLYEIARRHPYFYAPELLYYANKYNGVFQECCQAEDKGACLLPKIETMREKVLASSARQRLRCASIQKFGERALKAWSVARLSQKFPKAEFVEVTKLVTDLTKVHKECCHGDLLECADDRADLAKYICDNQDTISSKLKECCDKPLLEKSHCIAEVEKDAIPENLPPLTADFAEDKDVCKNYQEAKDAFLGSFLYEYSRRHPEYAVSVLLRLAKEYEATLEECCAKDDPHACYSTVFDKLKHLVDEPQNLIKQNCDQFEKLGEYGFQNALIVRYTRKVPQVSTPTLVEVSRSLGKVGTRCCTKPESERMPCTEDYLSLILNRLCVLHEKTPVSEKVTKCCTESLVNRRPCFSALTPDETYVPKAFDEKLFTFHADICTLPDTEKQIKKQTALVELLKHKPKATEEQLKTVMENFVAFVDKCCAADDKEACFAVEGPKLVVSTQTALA

B1: m36 (VHH)
VHH: QVQLVQSGGGLVQPGGSLRLSCAASAFDFSDYEMSWVRQAPGKGLEWIGEINDSGNTIYNPSLKSRVTISRDNSKNTLYLQMNTLRAEDTAIYYCAIYGGNSGGEYWGQGTLVTVSS
notes: Human VH domain antibody, monomeric, made in E. coli with His and FLAG tags; also called b5; dAb m36
The EC50 is the concentration giving half of the maximal effect. Higher therefore signals weaker potency. As to B1, the binding result with soluble CD4 and in the test with bovine serum albumin was “no binding (tested: 10 µg/ml)” each time. For the same molecule, the values for the EC50 in test [1] and in test [2] were about 2.5 nM and 0.04 µg/mL, respectively.

(Values after patent US20110104163A1 (US Dept. of Health and Human Services, published 2011).)
